Experimental data: publication PMC10551642, “Functional plasticity in chromosome–microtubule coupling on the evolutionary time scale” (Life Science Alliance, 2023)

Target: the molecule itself
Experiment: negative stain electron microscopy; Dam1 complex-MT reaction mix adsorbed on glow-discharged grids, washed with 25 mM HEPES pH 7.4, 500 mM NaCl, 1 mM EDTA, stained with 0.7% uranyl formate; rings of the complex around MTs

B1: S. cerevisiae Dam1 complex containing Dad2-FL (DASH^WT) (complex)
chain 1: MMASTSNDEEKLISTTDKYFIEQRNIVLQEINETMNSILNGLNGLNISLESSIAVGREFQSVSDLWKTLYDGLESLSDEAPIDEQPTLSQSKTK
chain 2: MDSIDEQIAIKRKELQSLQKITSLTDGLKIQLTELNEQIKEMGMNADSVAQLMNNWDSIINNISQASLGLLQYAEGDYEIGPWKDSKKKESEQSNETGLEAQENDKNDEDNDEDEDLVPLPETMVRIRVDGNE
chain 3: MEHNLSPLQQEVLDKYKQLSLDLKALDETIKELNYSQHRQQHSQQETVSPDEILQEMRDIEVKIGLVGTLLKGSVYSLILQRKQEQESLGSNSK
chain 4: MENPHEQVQANILSRIIGNVKRLNESVAILNQELVTINNRNKNLEIMGAICDNYHSSVQFNLEATNNKKPPL
chain 5: MSEDKAKLGTTRSATEYRLSIGSAPTSRRSSMGESSSLMKFADQEGLTSSVGEYNENTIQQLLLPKIRELSDSIITLDSNFTRLNFIHESLADLNESLGSLLYGIMSNSWCVEFSQAPHDIQDDLIAIKQLKSLEDEKNNLVMELSNMERGIKRKKDEQGENDLAKASQNKQFNQPLFPSSQVRKYRSYDNRDKRKPSKIGNNLQVENEEDYEDDTSSEASFVLNPTNIGMSKSSQGHVTKTTRLNNNTNSKLRRKSILHTIRNSIASGADLPIENDNVVNLGDLHPNNRISLGSGAARVVNGPVTKNRNSMFSGRAERKPTESRHSVAKKTEKKINTRPPFR
chain 6: MSEQSQLDDSTIDKLIPQIFNEMRSNLNNTTNKFPKSTGGGASDNISANSNSIRSFNSITTQSLLKESESLDKITAMIKNVTAALKNNLPVYVNQVHEVCKSTNSILDSWINIHSQAGYIHKLMSDQTYLKLINDRLHNENVNTNDEDGSTLHNVIALKKKEILDLRQKLENRKGEKDAAPAKPPNQGLNPRYGVQSGRRPVPSAGISNNGRVRKTHVPASKRPSGIPRVTNRWTKPTASSSRKMFR
chain 7: MDSASKEETLEKLDQEITVNLQKIDSNLSFCFHKITQDIIPHVATYSEICERIMDSTEWLGTMFQETGLVNLQANAAAPVGNAPVKSLVSNNVGIFPTSAEEASRQSQTDNGPNEADSAVHVNRDVHSMFNNDSIDDFHTANITSTGQILKLPDSSDEDTGSEAVPSREQTDLTGEGHGGADDEQDESTIQRQSRKRKISLLLQQQYGSSSSMVPSPIVPNKMRKQLAHEEHINNDGDNDDENSNNIESSPLKQGHHHPKGQADDNNEGPDEEESTKEVPKPGTIIHFSTNR
chain 8: MNANKQRQYNQLAHELRELQTNLQETTKQLDIMSKQCNENLVGQLGKVHGSWLIGSYIYYMEQMLGKTQ
chain 9: MTDALEQSVLALEGTVSVLKDSVESLKCANEPSTNLASTMLQTKRVFRLVPEYDVERSKLDLIEEVEPLVRTLGDKLRKSMGRMQRELDTLQQTYELNDLRLKKNISMDDDDALNSPDMGQEYEGRDADDVVMMASSTNEELEELKKLKEKKKQLENKLEILKQK
chain 10: MGESLDRCIDDINRAVDSMSTLYFKPPGIFHNAILQGASNKASIRKDITRLIKDCNHDEAYLLFKVNPEKQSVSRRDGKEGVFDYVIKRDTDMKRNRRLGRPGEKPIIHVPKEVYLNKDRLDLNNKRRRTATTSGGGLNGFIFDTDLIGSSVISNSSSGTFKALSAVFKDDPQIQRLLYALENGSVLMEEESNNQRRKTIFVEDFPTDLILKVMAEVTDLWPLTEFKQDYDQLYHNYEQLSSKLRFIKKEVLLQDDRLKTMSQYHPSSSHDVAKIIRKEKDEIRRLEMEIANLQE
notes: Dad1, S. cerevisiae, subunit of the Dam1 (DASH) complex; Dad2, S. cerevisiae, subunit of the Dam1 (DASH) complex; Dad2-FL; Dad3, S. cerevisiae, subunit of the Dam1 (DASH) complex; Dad4, S. cerevisiae, subunit of the Dam1 (DASH) complex; Dam1, S. cerevisiae, subunit of the Dam1 (DASH) complex; Duo1, S. cerevisiae, subunit of the Dam1 (DASH) complex; Ask1, S. cerevisiae, subunit of the Dam1 (DASH) …
Q: Does B1 bind?
A: Result: binds
